From US11268120B2, “Identification of transglutaminase substrates and uses therefor” (Roche Sequencing Solutions, Inc., priority 2014, dated 2022)
No end group written: not given here. *: point of attachment. Cbz = O=C(OCc1ccccc1)*

Experiments:
MTG [1] = target: T1, MTG (Streptomyces mobaraensis, UniProt P81453); assay: GLDH-coupled continuous assay for MTG activity in solution, Lys-containing substrate peptides; assay type: biochemical
T1 construct: purchased Zedira GmbH
T1 sequence (P81453 77-407): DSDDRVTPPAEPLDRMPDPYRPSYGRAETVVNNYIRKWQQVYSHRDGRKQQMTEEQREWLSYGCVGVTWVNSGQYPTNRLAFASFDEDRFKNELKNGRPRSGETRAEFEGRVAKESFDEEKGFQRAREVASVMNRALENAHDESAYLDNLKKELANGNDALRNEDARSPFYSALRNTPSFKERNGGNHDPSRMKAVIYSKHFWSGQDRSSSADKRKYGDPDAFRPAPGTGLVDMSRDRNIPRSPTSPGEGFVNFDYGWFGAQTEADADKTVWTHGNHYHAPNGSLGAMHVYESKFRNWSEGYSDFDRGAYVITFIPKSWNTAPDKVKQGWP
Protocol: (§1) FIG. 3 is a plot of MTG activity obtained by measuring rates of NADH oxidation at 340 nm and 37° C. using various concentrations of the di-peptide QG (1-20 mM) and the peptide […] (SEQ ID NO: 86) (0.2-5 mM) in the GLDH-coupled assay. The Michaelis-Menten equation was used to fit hyperbolic curves to the data points, giving Km and Vmax parameters and allowing calculation of turnover number (kcat) and catalytic efficiency (kcat/KM). Improved performance of array selected […] (SEQ ID NO: 86) (open squares) substrate was observed compared to standard QG-substrate (filled squares). ‘Z’ represents a carboxybenzyl protective group. […] The Michaelis-Menten equation was used to fit hyperbolic curves to the data points, giving Km and Vmax parameters as well as allowing calculation of turnover number (kcat) and catalytic efficiency (kcat/KM). Improved performance of array selected […] (SEQ ID NO: 80) (filled squares) substrate was observed as compared to a […] (SEQ ID NO: 81) substrate (filled circles). ‘Z-’ represents a carboxybenzyl protective group.
Lys-tag peptides were assayed in solution analog to the Gln-containing substrates: The assay was performed in a 96-well microtiter plate in the presence of 1.25 mM α-ketoglutarate, 100 μM Z-[…] (SEQ ID NO: 86) peptide as […], 0.2 U of glutamate dehydrogenase (GLDH), 500 μM NADH and Lys-containing substrate peptide concentrations ranging between 0 and 500 μM in 200 mM MOPS, 1 mM EDTA pH 7.2 (total volume per well 200 μl). The reaction was started by the addition of 0.1 U of MTG (Zedira GmbH) and the oxidation of NADH was continuously recorded against a blank at 340 nm for 20 min using a Biotek Synergy H4 microplate reader thermostated at 37° C. with short shaking intervals before each measurement. After a short lag phase, where the GLDH was saturated by MTG-mediated release of ammonia, linear rates of absorbance versus time, corresponding to MTG turnover, were observed, and subjected to Michaelis-Menten kinetic analysis.

MTG [2] = target: T1, MTG; assay: GLDH-coupled continuous assay for MTG activity in solution, Gln-containing substrate peptides; assay type: biochemical; settings: pH 7.2, 37° C.
Protocol: as §1
It was next determined whether peptides selected in the array assay were also preferred substrates in the solution reaction. The performance of the […] (SEQ ID NO: 26) peptide found in the array assay and the QG peptide substrate commonly used for testing MTG activity were compared. […]
The assay was performed in a 96-well microtiter plate in the presence of 10 mM α-ketoglutarate, 10 mM glycine methyl ester as acyl acceptor, 2 U of glutamate dehydrogenase (GLDH), 500 μM NADH (i.e., reduced nicotinamide adenine dinucleotide) and Gln-containing substrate peptide concentrations ranging between 0.2 and 20 mM in 200 mM MOPS (i.e., 3-(N-morpholino)propanesulfonic acid), 1 mM EDTA pH 7.2 (total volume per well 200 μl). The reaction was started by the addition of 0.1 U of MTG (Zedira GmbH) and the oxidation of NADH was continuously recorded against a blank at 340 nm for 20 min using a Biotek Synergy H4 microplate reader thermostated at 37° C. with short shaking intervals before each measurement. […]

[3] = BIACORE 3000 binding kinetics of VitDBP constructs to biotin labeled 25-OH-VitD2; settings: 25° C.
Protocol: Experiments were carried out to determine whether the addition of an array-selected motif interferes with the ability of VitDBP to bind to its natural ligand, 25-hydroxylated vitamin D2 (25-OH-VitD2). The glutamine donor motif selected for use was […] (i.e., SEQ ID NO 86). A BIACORE SA sensor was mounted into a BIACORE 3000 instrument. The instrument was tempered at 25° C. The sensor was preconditioned as recommended by the manufacturer (GE Healthcare). The system buffer was PBS pH 8.2 with 5% DMSO and 0.05% TWEEN20. The sample buffer was the system buffer supplemented with 1 mg per ml CMD (Sigma). From a 300 nM biotin labeled 25-OH-VitD2 (25-OH-VitD2-bi) sample solution 860 RU were captured on the sensor flow cell 2 by a 2 min injection at 10 μl per minute. The sensor surface was finally saturated by 5 μM amino-PEO-biotin (Pierce). As a reference, 1 μM amino-PEO-biotin was injected into flow cell 1 for 1 min at a rate of 10 μl per minute.
The analytes wt-VitDBP-His8 and wt-VitDBP-His8-Q2 were compared for their binding behavior towards 25-OH-VitD2. The Gln-motif was later ruthenylated by an MTG catalyzed reaction as described (FIGS. 10A and 10B).
The analytes were injected in concentration series of 600 nM, 200 nM, 67 nM, 22 nM, 7.4 nM and 0 nM (buffer only). The analyte association was monitored for 3 min and the dissociation for 5 min both at 20 μl per minute (FIGS. 11 and 12).
After each injection the system was regenerated by a 100 mM HCl injection for 1 minute and 15 seconds at 20 μl per minute followed by a 2 min injection of 10 mM glycine buffer pH 1.5. The data was overlayed in a BIACORE sensorgram and kinetic data was calculated by fitting a Langmuir 1:1 binding model to the data obtained as recommended by the manufacturer using the Biaevaluation Software version 4.1.

For “Z-GGGDEKPDGGGG (Cbz-GGGDEKPDGGGG) [reference compound]”, the “MTG activity (in words)” value (MTG [1]; kinetic data could not be determined) was “extremely low activity”.

Molecule Z-GGGDYALQGGGG (Cbz-GGGDYALQGGGG) has a Km (MTG [2]; Gln-peptide 0.2-20 mM, 10 mM glycine methyl ester as acyl acceptor) of 970 ± 320 µM, a Vmax (MTG [2]; Gln-peptide, 0.1 U MTG) of 0.46 ± 0.06 nmol/s and a kcat (MTG [2]; Gln-peptide) of 6.0 s⁻¹.

For Z-GGGARSKLGGGG, the “apparent difference in MTG catalytic efficiency compared to low-signal substrate GGGDEKPDGGGG” value (MTG [1]) was “at least 10 fold”, the Km (MTG [1]; Lys-peptide 0-500 μM, 100 μM Z-GGGDYALQGGGG, pH 7.2, 37° C.) was 66.8 ± 20.2 µM and the Vmax (MTG [1]; Lys-peptide, 0.1 U MTG, pH 7.2, 37° C.) was 5.1 ± 0.5 pmol/s. It also gave a kcat (MTG [1]; Lys-peptide, pH 7.2, 37° C.) of 0.066 s⁻¹.

B1: wt-VDBP-His8: wild type vitamin D binding protein with C-terminally fused 8× Histidine tag, without Q2 tag (protein, UniProt P02774 17-474, looked up)
Vitamin D-binding protein: LERGRDYEKNKVCKEFSHLGKEDFTSLSLVLYSRKFPSGTFEQVSQLVKEVVSLTEACCAEGADPDCYDTRTSALSAKSCESNSPFPVHPGTAECCTKEGLERKLCMAALKHQPQEFPTYVEPTNDEICEAFRKDPKEYANQFMWEYSTNYGQAPLSLLVSYTKSYLSMVGSCCTSASPTVCFLKERLQLKHLSLLTTLSNRVCSQYAAYGEKKSRLSNLIKLAQKVPTADLEDVLPLAEDITNILSKCCESASEDCMAKELPEHTVKLCDNLSTKNSKFEDCCQEKTAMDVFVCTYFMPAAQLPELPDVELPTNKDVCDPGNTKVMDKYTFELSRRTHLPEVFLSKVLEPTLKSLGECCDVEDSTTCFNAKGPLLKKELSSFIDKGQELCADYSENTFTEYKKKLAERLKAKLPDATPTELAKLVNKHSDFASNCCSINSPPLYCDSEIDAELKNIL
modifications: His8 tag
With B1 the Kd ([3]; Langmuir 1:1 binding model) was 95 nM, the ka ([3]; Langmuir 1:1 binding model) was 13800 M⁻¹ s⁻¹ and the kd ([3]; Langmuir 1:1 binding model) was 0.00131 s⁻¹. The Kd ([3]; Ligand VitD2-250H-biotin (300 nM)) was 95 nM.
